These results are taken from patent publication US8597922B2, “Methods and compositions for producing olefins” (LS9, Inc., priority 2007, dated 2013).

The subject of data set [1] is S. cerevisiae (BY4741) yeast cells. In words: α-Olefin production in Saccharomyces cerevisiae by heterologous expression of orf880. In kind it is cell-based. As to conditions: expressed in S. cerevisiae. How it is done:
Genomic DNA encoding Jeotgalicoccus sp. ATCC 8456_orf880 is cloned into the ApaI and XhoI sites of the yeast expression vector pESC-His. S. cerevisiae (BY4741) yeast cells are then transformed with either a plasmid containing orf880 or a plasmid not containing orf880. The transformed yeast cells are cultured under suitable conditions to allow expression of ORF880. The cells are pelleted and then lysed using YeastBuster™ (Novagen, Madison, Wis.). The α-olefins are extracted and analyzed as described in Examples 6 and 7.

For data set [2], the system named is E. coli. In words: Heterologous expression of 8456_orf880 in E. coli with fatty acid feeding. It counts as cell-based. How it is done:
ATCC 8456 cells were grown in 15 mL TSBYE medium (3% Tryptic Soy Broth+0.5% Yeast Extract). Fatty acids were added to the culture medium at final concentrations of 0.5 g/l (0.05%). After growth for 40-48 h at 30° C., cells from 5 mL of culture were pelleted, resuspended in 1 mL methanol, sonicated for 30 min, and extracted with 4 mL hexane. After solvent evaporation, samples were resuspended in 0.1 mL hexane and analyzed by GC-MS.
Jeotgalicoccus ATCC 8456 ORF880 was identified as one of the two major proteins in a highly purified enzyme fraction that catalyzed the conversion of free fatty acids to α-olefins. The genomic DNA encoding ATCC 8456_orf880 was cloned into pCDF-Duet1 under the control of the T7 promoter, and E. coli was transformed with various vectors, as described below. The E. coli cells were grown, and the hydrocarbons produced by the cells were analyzed as described in Example 2. When 0.05% stearic acid was fed to cultures of E. coli transformed with the 8456_orf880-containing vector, the expression of 8456_orf880 led to the formation of 1-heptadecene in E. coli (see FIG. 8, depicting GC/MS traces of α-olefins from E. coli either without (black) or with (gray) expression of 8456_orf880). […] Additionally, when E. coli cells expressing 8456_orf880 protein were fed with 0.05% palmitic acid or 0.05% eicosanoic acid, the production of 1-pentadecene or 1-nonadecene, respectively, was observed.

Data set [3] is described as follows: Specific activity of α-olefin and α/β-hydroxy fatty acid formation by purified enzymes. It counts as biochemical. As to conditions: 500 μM H2O2, 200 μM potassium hexadecanoate. The procedure:
The specific activity of α-olefin formation as well as α-(2) and β-(3)hydroxy fatty acid formation were determined for ORF880, CYP152A1, and CYP152A1 Q85H (see Examples 12 and 16). An E. coli BL21 strain (DE3) (Invitrogen) was transformed with either pET15b-orf 880, pET15b-cyp152A1, and pET15b-cyp152A1 Q85H using routine chemical transformation techniques. Protein expression was carried out by first inoculating a colony of the E. coli strain in 5 mL of LB media supplemented with 100 mg/L of carbenicillin and shaken overnight at 37° C. to produce a starter culture. This starter culture was used to inoculate 0.5 L of LB media supplemented with 100 mg/L of carbenicillin. The culture was shaken at 37° C. until an OD600 value of 0.6 was reached. The culture was placed on ice for 10 min before IPTG was added to a final concentration of 250 μM. The culture was shaken at 25° C. for approximately 18 h, and then centrifuged at 3,700 rpm for 20 min at 4° C. The pellet was then resuspended in 10 mL of buffer containing 100 mM sodium phosphate buffer at pH 7.2 supplemented with Bacterial ProteaseArrest (GBiosciences). The cells were then sonicated at 12 W on ice for 9 sec with 1.5 sec of sonication followed by 1.5 sec of rest. This procedure was repeated 5 times with one min intervals between each sonication cycle. The cell free extract was centrifuged at 10,000 rpm for 30 min at 4° C. 5 mL of Ni-NTA (Qiagen) was added to the supernatant, and the mixture was gently stirred at 4° C. The slurry was passed over a column removing the resin from the lysate. The resin was then washed with 30 mL of buffer containing 100 mM sodium phosphate buffer at pH 7.2 plus 30 mM imidazole. Finally, the protein was eluted with 15 mL of 100 mM sodium phosphate buffer at pH 7.2 plus 250 mM imidazole. The protein solution was dialyzed with 200 volumes of 100 mM sodium phosphate buffer at pH 7.2 with 20% glycerol. Protein concentration was determined using the Bradford assay (Biorad). 578 μg/mL of ORF880, 865 μg/mL of CYP152A1, and 653 μg/mL of CYP152A1 Q85H protein was obtained.
To determine the specific activity with potassium hexadecanoate, the following reactions were set-up where each time point consisted of 500 μL. Each reaction contained of 500 μM H2O2, 200 μM of potassium hexadecanoate, 100 mM sodium phosphate buffer at pH 7.2, and protein at the following concentrations: ORF880-0.23 or 0.46 μM; CYP152A1-8.65, 17.3, or 34.6 μM; CYP152A1 Q85H-6.53, 13.06, or 26.12 μM. The reactions were carried out at room temperature and time points were taken at 0, 1, 3, 5, 7, 10, 14, and 20 minutes. Reactions were quenched with 50 μL of 12 M HCl and then extracted with 200 μL of ethyl acetate. 50 μL of this extract was then reacted with 50 μL N,O-Bis(trimethylsilyl)trifluoroacetamide with trimethyl-chlorosilane (Aldrich). Samples were analyzed using GC/MS using the following parameters: run time: 20 min; column: HP-5-MS Part No. 190915-433E (length of 30 meters; I.D.: 0.25 mm narrowbore; film: 0.25 μM); inject: 1 μL Agilent 6850 inlet; inlet: 300° C. splitless; carrier gas: helium; flow: 1.3 mL/min; oven temp: 100° C. hold 5 min, 320° C. at 20° C./min, 320° C. hold 5 min; det: Agilent 5975B VL MSD; det. temp: 300° C.; scan: 50-500 M/Z. Calibration curves were generated using 1-pentadecene, α(2)-hydroxyhexadecanoic acid, and β(3)-hydroxyhexadecanoic acid dissolved in ethyl acetate and derivatized as described herein.
Based upon this analysis, product formation was determined to be linear within the first three minutes. The specific activities for each enzyme concentration in the linear range were averaged for a given reaction (e.g., decarboxylation, α-hydroxylation, or β-hydroxylation). FIG. 21 summarizes the results. The specific activity for 1-pentadecene formation was similar for ORF880 and CYP152A1. Mutating the glutamine 85 residue to a histidine increased the specific activity of 1-pentadecene formation (i.e., increased fatty acid decarboxylase activity). […]

B1: ORF880: olefin-producing enzyme (fatty acid decarboxylase) from Jeotgalicoccus sp. ATCC 8456, SEQ ID NO:2 (protein)
chain: MATLKRDKGLDNTLKVLKQGYLYTTNQRNRLNTSVFQTKALGGKPFVVVTGKEGAEMFYNNDVVQREGMLPKRIVNTLFGKGAIHTVDGKKHVDRKALFMSLMTEGNLNYVRELTRTLWHANTQRMESMDEVNIYRESIVLLTKVGTRWAGVQAPPEDIERIATDMDIMIDSFRALGGAFKGYKASKEARRRVEDWLEEQIIETRKGNIHPPEGTALYEFAHWEDYLGNPMDSRTCAIDLMNTFRPLIAINRFVSFGLHAMNENPITREKIKSEPDYAYKFAQEVRRYYPFVPFLPGKAKVDIDFQGVTIPAGVGLALDVYGTTHDESLWDDPNEFRPERFETWDGSPFDLIPQGGGDYWTNHRCAGEWITVIIMEETMKYFAEKITYDVPEQDLEVDLNSIPGYVKSGFVIKNVREVVDRT
modifications: Jeotgalicoccus sp. ATCC8456
Regarding B1, the α-olefin production result in data set [1] is given as “produces α-olefins”. In addition, the α-olefin produced in data set [2] (0.05% eicosanoic acid fed) is given as 1-nonadecene; in data set [2] (0.05% palmitic acid fed) it was 1-pentadecene; in data set [2] (0.05% stearic acid fed) it was 1-heptadecene. Also, the “rate of hydroxyhexadecanoic acid production relative to the rates of the two CYP152A1 enzymes” value in data set [3] was “about 1/50”. The “specific activity for 1-pentadecene formation” value in data set [3] (pH 7.2, room temperature, comparison between enzymes) is “similar”.
